We go through two molecules from publication PMC3458530.

Common to all, as to experiment: EMSA
In one data set the target is DNMT3A full-length (human, UniProt Q9Y6K1 1-912).
Data set [1] has as its target DNMT3A catalytic domain (cDNMT3A) (human, UniProt Q9Y6K1 612-912).
The next data set has as its target T1, M.HhaI (bacterial (species ), UniProt P05102 1-327).
T1 sequence: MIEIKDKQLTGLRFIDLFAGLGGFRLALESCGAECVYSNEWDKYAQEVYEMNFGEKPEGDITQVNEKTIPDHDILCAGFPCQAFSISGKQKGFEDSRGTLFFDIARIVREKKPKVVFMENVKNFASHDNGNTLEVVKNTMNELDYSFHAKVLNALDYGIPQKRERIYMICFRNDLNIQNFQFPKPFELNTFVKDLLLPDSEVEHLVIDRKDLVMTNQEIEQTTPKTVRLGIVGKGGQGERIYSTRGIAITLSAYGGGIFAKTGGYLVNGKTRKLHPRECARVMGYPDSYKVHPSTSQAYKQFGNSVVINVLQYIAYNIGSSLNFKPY

DNMT3A full-length, sequence (Q9Y6K1 whole entry, the tested form may be a part): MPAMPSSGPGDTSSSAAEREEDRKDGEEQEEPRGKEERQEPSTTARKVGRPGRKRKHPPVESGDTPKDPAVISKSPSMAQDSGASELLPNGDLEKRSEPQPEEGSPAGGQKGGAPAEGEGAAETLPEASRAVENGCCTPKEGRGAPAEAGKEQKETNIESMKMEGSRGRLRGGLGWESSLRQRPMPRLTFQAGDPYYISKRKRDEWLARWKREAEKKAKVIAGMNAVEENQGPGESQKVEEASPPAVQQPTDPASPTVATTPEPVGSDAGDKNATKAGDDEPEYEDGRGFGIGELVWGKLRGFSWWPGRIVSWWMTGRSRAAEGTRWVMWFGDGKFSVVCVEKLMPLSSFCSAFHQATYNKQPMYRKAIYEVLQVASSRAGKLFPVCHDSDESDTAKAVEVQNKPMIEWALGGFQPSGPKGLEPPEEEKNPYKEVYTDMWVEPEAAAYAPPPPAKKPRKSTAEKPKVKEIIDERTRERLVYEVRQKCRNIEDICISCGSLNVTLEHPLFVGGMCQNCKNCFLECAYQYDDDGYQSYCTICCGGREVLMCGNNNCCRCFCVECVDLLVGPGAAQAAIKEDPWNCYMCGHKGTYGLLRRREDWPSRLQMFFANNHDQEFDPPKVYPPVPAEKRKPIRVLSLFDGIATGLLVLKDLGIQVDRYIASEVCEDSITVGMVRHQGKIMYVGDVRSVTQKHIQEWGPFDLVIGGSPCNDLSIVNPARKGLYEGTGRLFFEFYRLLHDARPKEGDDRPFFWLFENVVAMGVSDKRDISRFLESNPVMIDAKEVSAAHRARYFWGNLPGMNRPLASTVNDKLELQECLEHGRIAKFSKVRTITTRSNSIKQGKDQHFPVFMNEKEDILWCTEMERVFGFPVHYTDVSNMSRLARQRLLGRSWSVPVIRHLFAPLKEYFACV
DNMT3A catalytic domain (cDNMT3A), sequence (Q9Y6K1 612-912): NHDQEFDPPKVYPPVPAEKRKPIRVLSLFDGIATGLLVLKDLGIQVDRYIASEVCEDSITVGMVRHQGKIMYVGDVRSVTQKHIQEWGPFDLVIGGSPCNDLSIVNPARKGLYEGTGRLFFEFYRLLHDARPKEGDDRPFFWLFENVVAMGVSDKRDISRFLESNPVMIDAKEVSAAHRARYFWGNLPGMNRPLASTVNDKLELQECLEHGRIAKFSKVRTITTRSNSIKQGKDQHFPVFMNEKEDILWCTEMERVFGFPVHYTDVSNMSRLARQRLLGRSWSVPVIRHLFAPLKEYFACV

For the molecule GAGUUUACCCCGCGCCACCUU (ssRNA) [EFS1 (ssEF1a RNA)], binding in the data set with DNMT3A full-length was characterised by a dissociation constant (Kd) of 690 nM. Also, the binding result (in data set [1]; with M.HhaI) was “no binding” each time.

B1: NUP153 duplex siRNA (dsRNA)
RNA 1: ACCAAAUAAAACUGGCAAATT
RNA 2: UUUGCCAGUUUUAUUUGGUTT
modifications: 3' dTdT on both strands (DNA residues)
B1 showed a dissociation constant Kd with DNMT3A full-length of 520 nM.
